Consider eight molecules from patent US20240343803A1 (SHANDONG SIMCERE BIOPHARMACEUTICAL, published 2024).

T1: Fusion protein of extracellular domain of human TIGIT and His-tag (human TIGIT ECD-his) (human)
T1 chain: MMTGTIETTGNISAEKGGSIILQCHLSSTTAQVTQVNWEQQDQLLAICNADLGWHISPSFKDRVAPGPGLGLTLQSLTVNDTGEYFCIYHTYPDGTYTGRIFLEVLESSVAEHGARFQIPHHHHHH

T2: Fusion protein of extracellular domain of human TIGIT and mouse IgG2a Fc fragment (human TIGIT ECD-mFc) (human)
T2 construct: The entry includes the signal peptide (limits not recoverable) and the mouse IgG2a Fc
T2 chain: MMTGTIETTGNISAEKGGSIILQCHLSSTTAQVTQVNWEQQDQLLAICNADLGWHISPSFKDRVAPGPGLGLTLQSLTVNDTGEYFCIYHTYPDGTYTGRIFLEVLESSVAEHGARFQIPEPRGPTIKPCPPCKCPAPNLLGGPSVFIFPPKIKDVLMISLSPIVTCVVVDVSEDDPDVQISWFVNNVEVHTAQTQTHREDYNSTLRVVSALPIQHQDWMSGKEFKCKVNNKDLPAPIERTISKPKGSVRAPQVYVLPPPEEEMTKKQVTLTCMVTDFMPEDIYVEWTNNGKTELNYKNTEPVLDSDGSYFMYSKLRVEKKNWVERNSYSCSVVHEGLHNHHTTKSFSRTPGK

T3: human TIGIT ECD-mFc (human)
T3 construct: also called human TIGIT protein; fusion protein of extracellular domain of human TIGIT and mouse IgG2a Fc fragment
T3 chain: T2 chain

T4: Full-length human TIGIT on CHO-K1 cells (CHO-K1 human TIGIT) (human, UniProt Q495A1 22-244)
T4 construct: NCBI XP_024309156.1; the entry includes the signal peptide (limits not recoverable); The strain (high, medium, low) is named under assay; also called high expression strain 1D2; medium expression strain 2D10
T4 sequence: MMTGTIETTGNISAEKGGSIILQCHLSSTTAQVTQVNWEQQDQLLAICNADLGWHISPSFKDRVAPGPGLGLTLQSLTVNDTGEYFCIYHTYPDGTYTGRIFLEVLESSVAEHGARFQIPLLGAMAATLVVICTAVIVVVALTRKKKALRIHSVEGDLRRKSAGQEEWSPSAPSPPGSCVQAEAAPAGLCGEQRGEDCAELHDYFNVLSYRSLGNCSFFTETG

B1: TIGIT-070-H2L2 (antibody, V domains shown)
VH: EVQLVQSGAEVKKPGASVKVSCKASGYTFTNYYMHWVRQAPGQRLEWMGRIDPDSGGSKYNEKFKSRVTITVDKLSSTAYMELSSLRSEDTAVYYCAREGHYGFYSDYWGQGTTVTVSS
VL: DIQMTQSPSSLSASVGDRVTITCRVSENIYSYLAWYQQKPGKSPKLLVYNAKTLAEGVPSRFSGSGSGTDFTLTISSLQPEDFATYYCQHHYGNPLTFGPGTKVDIK
notes: Humanized anti-TIGIT antibody
B2: TIGIT-070-H2L3 (antibody, V domains shown)
VH: B1 VH
VL: DIVMTQSPDSLAVSLGERATINCRVSENIYSYLAWYQQKPGQSPKLLVYNAKTLAEGVPDRFSGSGSGTDFTLTISSLQAEDVAVYYCQHHYGNPLTFGPGTKVDIK
notes: Humanized anti-TIGIT antibody
B3: TIGIT-070-H3L2 (antibody, V domains shown)
VH: B1 VH with R44G
VL: B1 VL
notes: Humanized anti-TIGIT antibody
B4: TIGIT-070-H3L1 (antibody, V domains shown)
VH: B1 VH with R44G
VL: B1 VL with V48I
notes: Humanized anti-TIGIT antibody
B5: TIGIT-070-H3L3 (antibody, V domains shown)
VH: B1 VH with R44G
VL: B2 VL
notes: Humanized anti-TIGIT antibody
B6: TIGIT-070-H1L3 (antibody, V domains shown)
VH: B1 VH with L75S, S76A
VL: B2 VL
notes: Humanized anti-TIGIT antibody
B7: TIGIT-002-H4L3 (antibody, V domains shown)
VH: EVQLQESGPGLVKPSETLSLTCAVSGYSITSDSWNWIRQPPGKKLEYIGYISYSGNTYYNPSLKSRVTISRDTSKNQFSLKLSSVTAADTAVYYCARLDFSNYGGAVDYWGQGTTVTVSS
VL: DIVMTQSPDSLAVSLGERATINCKASQNVRTAVAWYQQKPGQSPKLMIYSASYRYTGVPDRFSGSGSGTDFTLTISSLQAEDVAVYYCQQYYTTPWTFGGGTKVEIK
B8: TIGIT-005-H2L1d (antibody, V domains shown)
VH: EVQLVQSGAEVKKPGASVKVSCKASGYAFTNYLIEWVRQAPGQRLEWMGVINPGSGGTNYKEKFKGRVTITADKSSSTAYMELSSLRSEDTAVYYCARGEYFFFDYWGQGTTVTVSS
VL: B7 VL with N28H, R30S, T31N, Q38H, M47L, Y91H, T93N, W96H

Where a chain is given by its changes, count along the chain named.

T7 sequence (chain, as listed by the source limits assumed): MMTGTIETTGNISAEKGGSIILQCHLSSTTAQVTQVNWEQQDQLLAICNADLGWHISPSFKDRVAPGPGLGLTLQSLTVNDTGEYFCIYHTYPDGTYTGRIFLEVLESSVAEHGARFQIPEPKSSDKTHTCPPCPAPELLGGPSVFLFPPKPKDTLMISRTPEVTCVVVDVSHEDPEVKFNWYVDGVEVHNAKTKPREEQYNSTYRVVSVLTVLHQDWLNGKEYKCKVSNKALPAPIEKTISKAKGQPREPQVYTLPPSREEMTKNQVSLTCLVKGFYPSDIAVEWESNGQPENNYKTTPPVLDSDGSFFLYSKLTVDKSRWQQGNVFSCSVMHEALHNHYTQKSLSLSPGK
T6 sequence (chain, as listed by the source limits assumed): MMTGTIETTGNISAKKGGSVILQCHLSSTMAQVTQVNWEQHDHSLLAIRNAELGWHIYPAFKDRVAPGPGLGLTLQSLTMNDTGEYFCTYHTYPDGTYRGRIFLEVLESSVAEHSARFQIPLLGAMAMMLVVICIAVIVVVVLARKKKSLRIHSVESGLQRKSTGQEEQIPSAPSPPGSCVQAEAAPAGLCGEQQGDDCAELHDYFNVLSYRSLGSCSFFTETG

In the first assay the target is T1, Fusion protein of extracellular domain …. Kind of assay: BIAcore.
The Kd is the constant that tells how readily two partners part at equilibrium. Broadly, the koff is a measure of how fast the partners let go of each other. By kon is commonly meant a measure of how fast the partners come together. On to B1, for which the affinity, expressed as Kd, was 0.0851 nM; the koff was 0.000142 s⁻¹; the kon worked out at 1.67e+06 M⁻¹ s⁻¹.
For B2 the same measures were 0.0756 nM, 0.000134 s⁻¹ and 1.77e+06 M⁻¹ s⁻¹.
For B3 the same measures were 0.129 nM, 0.000168 s⁻¹ and 1.3e+06 M⁻¹ s⁻¹.
Consider B4, for which the Kd came to 0.121 nM, the koff turned out to be 0.000152 s⁻¹ and the kon was 1.26e+06 M⁻¹ s⁻¹.
For B5 the same measures were 0.115 nM, 0.000151 s⁻¹ and 1.31e+06 M⁻¹ s⁻¹.
Taken in the same sequence, the figures for B6 were 0.0724 nM, 0.000129 s⁻¹ and 1.78e+06 M⁻¹ s⁻¹.

For another assay, the target named is T2, Fusion protein of extracellular domain …. As to the kind of experiment: ELISA, human TIGIT ECD-mFc. An outline of the steps:
(§1)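 Plates blocked with 5% skim milk-PBS at 37° C for 2-4 h. Test antibodies applied as a 12-point 3-fold series from 13 nM for 1.5-2 h at 37° C. Read-out: HRP secondary (1:5000, 1 h, 37° C), TMB colour for 7-10 min at room temperature, acid stop, absorbance at OD450 nm.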
Background: ELISA stands for enzyme-linked immunosorbent assay.
What is called EC50 is the midpoint of the concentration-response curve. B1: the EC50 was 0.0125 nM.
In turn, B2 had an EC50 of 0.0119 nM.
Molecule B3 displayed an EC50 of 0.0143 nM.
In the case of B4, the EC50 was 0.0131 nM.
B5 displayed an EC50 of 0.0151 nM.
Turning to B6, the EC50 amounted to 0.0148 nM.

The next assay addresses T1, Fusion protein of extracellular domain …. Kind of assay: BIAcore; KD ratio to TIGIT-CHI-070. (In general: In SPR one partner is held on a chip, and binding of the other changes the refractive index at the surface.)
Regarding B1, the “Fold change vs chimeric antibodies (KD)” value turned out to be 0.87 fold.
On the same count and under the same terms, to B2 belongs 0.77 fold; to B3, 1.32 fold.
The same measure, in the same setting: to B4 belongs 1.23 fold; to B5, 1.17 fold; to B6, 0.74 fold.

In the next assay the target is T5, Fusion protein of extracellular domain of cynomolgus monkey TIGIT and mouse IgG2a Fc fragment (cynomolgus … (cynomolgus monkey)).
T5 construct: The entry includes the signal peptide (limits not recoverable) and the mouse IgG2a Fc
T5 sequence (chain, as listed by the source limits assumed): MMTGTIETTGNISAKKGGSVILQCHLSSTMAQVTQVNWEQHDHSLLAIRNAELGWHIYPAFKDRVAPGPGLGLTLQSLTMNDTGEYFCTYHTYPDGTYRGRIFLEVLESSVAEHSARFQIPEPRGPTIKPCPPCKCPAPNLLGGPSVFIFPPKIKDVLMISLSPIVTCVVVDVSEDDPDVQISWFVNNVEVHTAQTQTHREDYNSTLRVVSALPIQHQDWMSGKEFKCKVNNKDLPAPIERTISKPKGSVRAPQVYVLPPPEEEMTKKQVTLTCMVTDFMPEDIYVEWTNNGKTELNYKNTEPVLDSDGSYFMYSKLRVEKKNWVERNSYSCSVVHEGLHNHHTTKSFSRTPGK
As to the kind of experiment: ELISA, cynomolgus monkey TIGIT ECD-mFc. An outline of the steps:
as §1
In the case of B1, the EC50 was 0.0112 nM.
Same read-out and setting: to B2 belongs 0.0119 nM; to B3, 0.0157 nM; to B4, 0.0139 nM.
The same measure, in the same setting: to B5 belongs 0.0142 nM.
Take B6: the EC50 turned out to be 0.0137 nM.

Another assay has as its target T6, Full-length cynomolgus monkey TIGIT on CHO-K1 cells (CHO-K1 cynomolgus monkey TIGIT) (cynomolgus monkey).
T6 construct: NCBI XP_015300911.1
As to the kind of experiment: cell binding, CHO-K1 cynomolgus monkey TIGIT. A digest of the protocol:
(§2)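 Binding was measured by flow cytometry after a 60-minute, 4° C incubation of the antibodies with 2×10⁵ CHO-K1 cells displaying full-length human or cynomolgus monkey TIGIT. Antibody titration: 12 points, threefold serial dilution from 80 nM, in 1% BSA-PBS.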
In the case of B1, the EC50 turned out to be 0.0662 nM.
Still for that read-out and setting: the same measure for B2: 0.0774 nM.
On the same count and under the same terms, to B3 belongs 0.0665 nM.
Still for that read-out and setting: the same measure for B4: 0.0741 nM; for B5: 0.0556 nM; for B6: 0.112 nM.

The target in another assay is T3, human TIGIT ECD-mFc. As to the kind of experiment: ELISA, human TIGIT ECD-mFc captured by anti-mouse IgG. The method, then: (§3) After washing with blocking buffer, the plate was added with 50 μL/well of 30 ng/ml human TIGIT ECD-mFc (in house) or cynomolgus monkey TIGIT ECD-mFc (in house) and incubated at 37° C. for 2.0 hours. After washing the plate, the serial diluted antibodies (initial concentration 13 nM, 3-fold serial dilution, 12 concentration points) were added into the plate (50 μL/well) and incubated at 37° C. for 2.0 hours. After washing the plate, the goat anti-human IgG Fc-HRP (Merck, Cat NO. AP113P)) working solution (dilution ratio 1:5000, 50 μL/well) were added into wells and incubated at 37° C. for 1.0 hour. A HRP substrate, TMB (KPL, Cat NO. 5120-0077) was added into wells after washing the plate again for color development. After adding a termination solution to terminate the reaction, the absorbance value was read by a microplate reader (PE, Ensight-HH3400). An antibody binding curve was drawn with molar concentration of antibodies as the abscissa and the corresponding OD value as the ordinate. The EC50 value was calculated by using a Four Parameter Logistic Fit (GraphPad Prism9). […] The positive control antibodies are RG6058-hIgG1, TIGIT-002-H4L3 and TIGIT-005-H2Lld; and the negative control antibodies are anti-Fluorescein-hIgG1 (in house). The binding results of the 4 humanized bispecific antibodies to human TIGIT protein are shown in FIG. 43 and Tables 42 and 43, and the binding results to cynomolgus monkey TIGIT are shown in FIG. 44 and Tables 42 and 43.
As for B7, the “% relative activity RG6058-hIgG1/tested antibody” value was 135%, the “% relative activity TIGIT-002-H4L3/tested antibody” value stood at 100% and the EC50 turned out to be 0.0374 nM.

Another assay has as its target T3, human TIGIT ECD-mFc. The assay is described as above. The source holds these as a separate data set. How it is done: as §3
For B8, the “% relative activity RG6058-hIgG1/tested antibody” value was determined as 117%, the “% relative activity TIGIT-005-H2L1d/tested antibody” value was 100% and the EC50 is 0.0429 nM.

The next assay addresses T7, Fusion protein of extracellular domain of human TIGIT and human IgG1 Fc fragment (human TIGIT ECD-hFc) (human).
T7 construct: The entry includes the signal peptide (limits not recoverable) and the human IgG1 Fc
As to the kind of experiment: blocking of TIGIT ECD-hFc binding to CHO-K1 CD155 cells. A digest of the protocol: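 The inhibition curves from which IC50 was calculated were generated by cell-based ELISA. Fixed CHO-K1 CD155 cells, blocked with 5% skim milk-PBS, were incubated at 37° C for 1.5-2 h with antibodies that had been premixed for 0.5 h with human TIGIT ECD-hFc at a working concentration of 30 ng/mL. Detection of bound TIGIT used HRP secondary antibody at 1:5000 for 1 h at 37° C, followed by TMB and reading as OD450 nm.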
A word on the IC50: it is the point on the concentration scale where inhibition reaches its midpoint. The molecule B1 came in with an IC50 of 0.448 nM.
Molecule B2 returned an IC50 of 0.35 nM.
The same measure, in the same setting: the same measure for B3: 0.423 nM; for B4: 0.463 nM.
Still for that read-out and setting: the same measure for B5: 0.417 nM; for B6: 0.445 nM.

The target in another assay is T4, Full-length human TIGIT on CHO-K1 cells …. Kind of assay: cell binding, CHO-K1 human TIGIT high expression strain. A digest of the protocol:
as §2
B1: a half-maximal effect (EC50) was put at 0.0312 nM.
Take B2: a half-maximal response (EC50) required 0.0209 nM.
For B3, the EC50 is 0.0276 nM.
Consider B4, for which a half-maximal response (EC50) required 0.0132 nM.
The same measure, in the same setting: to B5 belongs 0.03 nM.
B6 showed a concentration giving a half-maximal response (EC50) of 0.024 nM.

The next assay has as its target T8, cynomolgus monkey TIGIT ECD-mFc (cynomolgus monkey).
T8 construct: also called cynomolgus monkey TIGIT protein
As to the kind of experiment: ELISA, cynomolgus TIGIT ECD-mFc captured by anti-mouse IgG. How it is done:
as §3
Consider B7, for which the “% relative activity RG6058-hIgG1/tested antibody” value amounted to 111%, the “% relative activity TIGIT-002-H4L3/tested antibody” value stood at 100% and it took 0.0415 nM to reach a half-maximal effect (EC50).

The target of another assay is T8, cynomolgus monkey TIGIT ECD-mFc. Described as above. The source holds these as a separate data set. The method, then:
as §3
Regarding B8, the “% relative activity RG6058-hIgG1/tested antibody” value was determined as 103%, the “% relative activity TIGIT-005-H2L1d/tested antibody” value is 100% and the response was half-maximal at 0.0446 nM (EC50).
